Among the data in patent US20150276749A1 (KONICA MINOLTA, published 2015) are S/N ratio values, retold here.

Assay [1] addresses T1, soluble-type human DSG3-mouse IgG2aFc fusion protein (human; mouse, UniProt P32926 50-616).
T1 construct: also called human desmoglein 3; desmoglein 3 standard; not shown: mouse IgG2a Fc, printed 'mouse IgG2aFc' and 'mouse IgG2 constant region'
T1 sequence: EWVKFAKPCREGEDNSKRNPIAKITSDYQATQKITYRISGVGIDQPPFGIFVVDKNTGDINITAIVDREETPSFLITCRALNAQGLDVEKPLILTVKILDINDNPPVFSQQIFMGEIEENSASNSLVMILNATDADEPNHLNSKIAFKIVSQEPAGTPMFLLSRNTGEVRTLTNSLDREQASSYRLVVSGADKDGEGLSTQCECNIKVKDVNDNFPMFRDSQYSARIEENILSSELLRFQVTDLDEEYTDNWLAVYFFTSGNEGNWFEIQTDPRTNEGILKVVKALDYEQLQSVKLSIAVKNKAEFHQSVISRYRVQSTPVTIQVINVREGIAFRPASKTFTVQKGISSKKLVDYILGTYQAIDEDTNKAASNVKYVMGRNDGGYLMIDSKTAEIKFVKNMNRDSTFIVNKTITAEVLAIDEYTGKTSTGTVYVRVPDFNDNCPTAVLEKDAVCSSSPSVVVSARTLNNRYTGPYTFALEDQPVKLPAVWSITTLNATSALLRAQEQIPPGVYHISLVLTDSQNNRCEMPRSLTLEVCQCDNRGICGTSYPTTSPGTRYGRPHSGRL
In words: SPFS sandwich; immobilized DF151, detection MAB1720; antigen 1,000 pg/mL (µg/mL in the source). Here is the method:
Once again, a Tris-buffered saline (TBS) containing 0.05% by mass of Tween 20 was fed and circulated in the flow path for 10 minutes to wash the flow path. Then, with the flow path being filled with PBS buffer (pH 7.4), the assay area was irradiated with laser light (640 nm, 40 μW) from the back side of the metal thin films, and the fluorescence intensity was measured using a photomultiplier tube (PMT) arranged above the assay area. The thus measured value was defined as “signal” (S) at a desmoglein 3 concentration of 100 μg/mL.
On another front, the fluorescence intensity was also measured by the same procedures as described above, except that a PBS solution containing no desmoglein 3 (0 μg/mL) was fed in place of the PBS solution containing 100 μg/mL of desmoglein 3. The thus measured value was defined as “noise” (N).
Further, the fluorescence intensity was measured by the same procedures as described above, except that the desmoglein 3 concentration of the fed PBS solution was changed to 10,000 μg/mL, 5,000 μg/mL, 1,000 μg/mL, 200 μg/mL, 50 μg/mL, 10 μg/mL, 3.16 μg/mL, 1 μg/mL, 0.316 μg/mL, 0.1 μg/mL and 0.031 μg/mL. The thus measured values were each defined as “signal” (S) at the respective concentrations.

For assay [2], the target named is T1, soluble-type human DSG3-mouse IgG2aFc …. The experiment in a line: sandwich ELISA, luminescence over blank; immobilized DF151, detection D219-3; antigen 10 pg/mL. Here is the method:
(§1) Subsequently, the antigen solutions having the above-described concentrations were each added to the plate in an amount of 50 μL/well, and the plate was incubated at room temperature for 1 hour. Then, the antigen solution was removed, and the plate was washed with 0.05% Tween 20-PBS three times. Thereafter, the 1-μg/mL biotinylated antibody solution was added in an amount of 50 μL/well, and the plate was incubated at room temperature for 1 hour.
(§2) Then, after removing the streptavidin-HRP solution and washing the plate with 0.05% Tween 20-PBS three times, a substrate solution (SuperSignal ELISA Femto Maximum Sensitivity Substrate (registered trademark); Pierce Biotechnology, Inc.) was added in an amount of 100 μL/well. One minute thereafter, the luminescence intensity was measured using a luminometer, Fluoroskan Ascent FL (trade name, Thermo Electron Corporation).
(§3) The numerical values shown in Table 1 represent the minimum values of the antigen solution concentration having an S/N ratio of higher than 2 (hereinafter, referred to as “detection limit concentration”) and the unit of the numerical values is pg/mL. The S/N ratio was determined by dividing the luminescence intensity at the respective antigen solution concentrations ([…]) by the luminescence intensity of an antigen-free blank antigen solution (0 μg/mL).

Assay [3] has the same target. In words: sandwich ELISA, luminescence over blank; immobilized DF151, detection D219-3; antigen 40 pg/mL. Here is the method:
as §1, §2, §3
On the technique in general: ELISA stands for enzyme-linked immunosorbent assay.

Assay [4] shares this target. The experiment in a line: sandwich ELISA, luminescence over blank; immobilized DF151, detection DF151; antigen 200 pg/mL. Here is the method: as §1, §2, §3
For assay [5] the target is unchanged. In words: sandwich ELISA, luminescence over blank; immobilized DF151, detection MAB1720; antigen 1 pg/mL. Here is the method: as §1, §2
(§4) The numerical values shown in Table 1 represent the minimum values of the antigen solution concentration having an S/N ratio of higher than 2 (hereinafter, referred to as “detection limit concentration”) and the unit of the numerical values is pg/mL. […]

The target is the same in assay [6]. In words: sandwich ELISA, luminescence over blank; immobilized DF151, detection MAB1720; antigen 10 pg/mL. Here is the method:
as §1, §2, §4

Assay [7] shares this target. In words: sandwich ELISA, luminescence over blank; immobilized DF151, detection D219-3; antigen 1000 pg/mL. The procedure:
as §1, §2, §3

For assay [8] the target is unchanged. In words: sandwich ELISA, luminescence over blank; immobilized DF151, detection D219-3; antigen 5000 pg/mL. Here is the method:
as §1, §2, §3

Assay [9] shares this target. In words: sandwich ELISA, luminescence over blank; immobilized DF151, detection DF151; antigen 25000 pg/mL. The procedure: as §1, §2, §3
The target is the same in assay [10]. The experiment in a line: sandwich ELISA, luminescence over blank; immobilized DF151, detection D219-3; antigen 25000 pg/mL. Here is the method: as §1, §2, §3
Assay [11] shares this target. The experiment in a line: sandwich ELISA, luminescence over blank; immobilized DF151, detection MAB1720; antigen 1000 pg/mL. The procedure:
as §1, §2, §3

B1: DF151 (DF151[I] antibody) (antibody, mouse IgG2b, kappa, V domains shown)
VH: EVQLQQSGPELVKPGASVKISCKASGYSFTAYYMHWVKQSPEKCLEWIGQINPSTGGTTYNQKFKAKATLTVDKSSSTAYMQLKSLTSEDSAVYYCARWGDSWGQGTTLTVSS
VL: DIVLTQSPASLAVSLGQSVTISCRASESVEYYGTSLMQWYQQKPGQPPKLLIYGASDVESGVPARFSGSGSGTDFSLNIHPVEEDDIAMYFCQQSRKVPYTFGSGTKLEIKR
notes: Complete antibody; Biotinylated as detection antibody in ELISA; labeled with Alexa Fluor 647 as detection antibody in SPFS; also called DF151 antibody
In the case of B1, the S/N ratio in [1] was 60.8; in assay [2], 0.9; in assay [3], 0.8; in [4] it was 1.2; in assay [5] it was 1; in [6] it was 1.1. The S/N ratio in [7] amounted to 2.3; in assay [8] it was 9.2; in [9], 55.2; in assay [10] it was 50.3; in assay [11], 4.1.
